Source: doi:10.1101/808618v2

Key:
Test in all cases: purified protein
purified protein [1] = substrate: NC(=O)CC[C@H](N)C(=O)O; conditions: pH 8.5, 25 °C, 20 mM MgCl2, XMP […], ATP 2 mM fixed
purified protein [2] = substrate: Nc1ncnc2c1ncn2[C@@H]1O[C@H](COP(=O)(O)OP(=O)(O)OP(=O)(O)O)[C@@H](O)[C@H]1O; conditions: pH 8.5, 25 °C, 20 mM MgCl2, XMP […], Gln 5 mM fixed
purified protein [3] = substrate: O=c1[nH]c(=O)c2ncn([C@@H]3O[C@H](COP(=O)(O)O)[C@@H](O)[C@H]3O)c2[nH]1; conditions: pH 8.5, 25 °C, 20 mM MgCl2, ATP 2 mM, Gln 5 mM fixed

B1: PfGMPS (Plasmodium falciparum 3D7) (protein)
chain: MEGEEYDKILVLNFGSQYFHLIVKRLNNIKIFSETKDYGVELKDIKDMNIKGVILSGGPYSVTEAGSPHLKKEVFEYFLEKKIPIFGICYGMQEIAVQMNGEVKKSKTSEYGCTDVNILRNDNINNITYCRNFGDSSSAMDLYSNYKLMNETCCLFENIKSDITTVWMNHNDEVTKIPENFYLVSSSENCLICSIYNKEYNIYGVQYHPEVYESLDGELMFYNFAYNICKCKKQFDPIRYHELELKNIEKYKHDHYVIAAMSGGIDSTVAAAYTHKIFKERFFGIFIDNGLLRKNEAENVYTFLKSTFPDMNITKIDASENFLSNLQGVTDPEQKRKIIGKLFIEEFEKAVNNIDIDINKTFLLQGTLYPDIIESKCSKNLSDTIKTHHNVGGLPKNLKFKLFEPFKYLFKDDVKTLSRELNLPEEITNRHPFPGPGLAIRVIGEINKHKLNILREVDDIFINDLKQYGLYNQISQAFAVLLSSKSVGVRGDARSYDYVCVLRAVKTSSFMTANWYQIPYDILDKITTRILSEVKGVNRILYDVSSKPPATIEFE
Km (purified protein [1]): 330 ± 20 µM | kcat (purified protein [1]): 0.766 ± 0.005 s⁻¹ | Km (purified protein [2]): 119 ± 2 µM | kcat (purified protein [2]): 0.893 ± 0.039 s⁻¹ | Km (purified protein [3]): 7.1 ± 1 µM | kcat (purified protein [3]): 0.741 ± 0.058 s⁻¹
